Patent publication US10702592B2, “Peptides and combination of peptides for use in immunotherapy against NHL and other cancers” (Immatics Biotechnologies GmbH, priority 2016, dated 2020)

Columns and labels:
[1] = target: HLA-A*02:01 (Homo sapiens, UniProt P04439, D140Y/D185E/D98H/E176V/E277Q/G131W/G231S/I119V/I121R/I166T/I218V/L300P/L318F/N151K/N90K/P208A/P217A/Q86G/Q94H/R138H/R169H/T345S); experiment: MHC binding assay (UV-ligand exchange, beta2m ELISA); details: binding to HLA-A*02:01, UV-ligand exchange
How it was run: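 UV-cleavable peptide in HLA monomers exchanged for test peptide by UV irradiation; exchange yield measured by streptavidin-capture ELISA with HRP anti-β2m (TMB, 450 nm) on 100-fold diluted complexes. Quantified against refolded HLA-A*02:01/MLA-001 standards (15-500 ng/ml).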

[2] = test system: CD8+ T cells; experiment: In vitro T-cell priming immunogenicity assay (aAPC with pMHC and anti-CD28, multimer staining); format: cell-based, human; details: HLA-A*02 restricted peptides; percentage of positive wells and donors (among evaluable)
Excerpt: In order to obtain information regarding the immunogenicity of the TUMAPs of the present invention, the inventors performed investigations using an in vitro T-cell priming assay based on repeated stimulations of CD8+ T cells with artificial antigen presenting cells (aAPCs) loaded with peptide/MHC complexes and anti-CD28 antibody.
In order to perform in vitro stimulations by artificial antigen presenting cells loaded with peptide-MHC complex (pMHC) and anti-CD28 antibody, the inventors first isolated CD8+ T cells from fresh HLA-A*02 leukapheresis products via positive selection using CD8 microbeads (Miltenyi Biotec, Bergisch-Gladbach, Germany) of healthy donors obtained from the University clinics Mannheim, Germany, after informed consent.
PBMCs and isolated CD8+ lymphocytes were incubated in T-cell medium (TCM) until use consisting of RPMI-Glutamax (Invitrogen, Karlsruhe, Germany) supplemented with 10% heat inactivated human AB serum (PAN-Biotech, Aidenbach, Germany), 100 U/ml Penicillin/100 μg/ml Streptomycin (Cambrex, Cologne, Germany), 1 mM sodium pyruvate (CC Pro, Oberdorla, Germany), 20 μg/ml Gentamycin (Cambrex). 2.5 ng/ml IL-7 (PromoCell, Heidelberg, Germany) and 10 U/ml IL-2 (Novartis Pharma, Nurnberg, Germany) were also added to the TCM at this step.
Generation of pMHC/anti-CD28 coated beads, T-cell stimulations and readout was performed in a highly defined in vitro system using four different pMHC molecules per stimulation condition and 8 different pMHC molecules per readout condition.
The purified co-stimulatory mouse IgG2a anti human CD28 Ab 9.3 (Jung et al., 1987) was chemically biotinylated using Sulfo-N-hydroxysuccinimidobiotin as recommended by the manufacturer (Perbio, Bonn, Germany). Beads used were 5.6 μm diameter streptavidin coated polystyrene particles (Bangs Laboratories, Illinois, USA).
800.000 beads/200 μl were coated in 96-well plates in the presence of 4×12.5 ng different biotin-pMHC, washed and 600 ng biotin anti-CD28 were added subsequently in a volume of 200 μl. Stimulations were initiated in 96-well plates by co-incubating 1×10^6 CD8+ T cells with 2×10^5 washed coated beads in 200 μl TCM supplemented with 5 ng/ml IL-12 (PromoCell) for 3 days at 37° C. Half of the medium was then exchanged by fresh TCM supplemented with 80 U/ml IL-2 and incubating was continued for 4 days at 37° C. This stimulation cycle was performed for a total of three times. For the pMHC multimer readout using 8 different pMHC molecules per condition, a two-dimensional combinatorial coding approach was used as previously described (Andersen et al., 2012) with minor modifications encompassing coupling to 5 different fluorochromes. Finally, multimeric analyses were performed by staining the cells with Live/dead near IR dye (Invitrogen, Karlsruhe, Germany), CD8-FITC antibody clone SK1 (BD, Heidelberg, Germany) and fluorescent pMHC multimers. For analysis, a BD LSRII SORP cytometer equipped with appropriate lasers and filters was used. Peptide specific cells were calculated as percentage of total CD8+ cells. Evaluation of multimeric analysis was done using the FlowJo software (Tree Star, Oregon, USA). In vitro priming of specific multimer+CD8+ lymphocytes was detected by comparing to negative control stimulations.

Substance | Peptide exchange (MHC class I binding score, peptide exchange yield) [1] | Wells positive [%] [2]
44 (FIIEEQSFL; listed as Homo sapiens) [compound 44] | “+++” (≥50 = +++) | “+” (<20% = +)
46 (FLVEEIFQT; listed as Homo sapiens) [compound 46] | “+++” (≥50 = +++) | “+” (<20% = +)
47 (GLLPKLTAL; listed as Homo sapiens) [compound 47] | “+++” (≥50 = +++) | “++” (20% - 49% = ++)
51 (SLLGNSPVL; listed as Homo sapiens) [compound 51] | “++++” (≥75% = ++++) | “+++” (50% - 69% = +++)
52 (VLLEDVDAAFL; listed as Homo sapiens) [compound 52] | “++++” (≥75% = ++++) | “+” (<20% = +)
53 (FLREYFERL; listed as Homo sapiens) [compound 53] | “++++” (≥75% = ++++) | “+++” (50% - 69% = +++)
57 (LQIGDFVSV; listed as Homo sapiens) [compound 57] | “++++” (≥75% = ++++) | “++++” (≥70% = ++++)
59 (RLHREVAQV; listed as Homo sapiens) [compound 59] | “+++” (≥50 = +++) | “+” (<20% = +)
60 (SLLIDVITV; listed as Homo sapiens) [compound 60] | “+++” (≥50 = +++) | “+++” (50% - 69% = +++)
61 (SLLNKDLSL; listed as Homo sapiens) [compound 61] | “++++” (≥75% = ++++) | “+” (<20% = +)
62 (ALAPYLDLL; listed as Homo sapiens) [compound 62] | “++++” (≥75% = ++++) | “++” (20% - 49% = ++)
66 (KLAPIPVEL; listed as Homo sapiens) [compound 66] | “++++” (≥75% = ++++) | “++” (20% - 49% = ++)
67 (LLATVNVAL; listed as Homo sapiens) [compound 67] | “++++” (≥75% = ++++) | “+” (<20% = +)
68 (QIAAFLFTV; listed as Homo sapiens) [compound 68] | “++++” (≥75% = ++++) | “+++” (50% - 69% = +++)
73 (YLGEEYPEV; listed as Homo sapiens) [compound 73] | “+++” (≥50 = +++) | “+” (<20% = +)
74 (SLDLRPLEV; listed as Homo sapiens) [compound 74] | “++++” (≥75% = ++++) | “++” (20% - 49% = ++)
253 (YSDDDVPSV; listed as Homo sapiens) [compound 253] | “++++” (≥75% = ++++) | “+++” (50% - 69% = +++)
254 (FLYSETWNI; listed as Homo sapiens) [compound 254] | “++++” (≥75% = ++++) | “+” (<20% = +)
256 (ALQETPPQV; listed as Homo sapiens) [compound 256] | “+++” (≥50 = +++) | “+” (<20% = +)
258 (RIYPFLLMV; listed as Homo sapiens) [compound 258] | “+++” (≥50 = +++) | “++++” (≥70% = ++++)
260 (RLDEAFDFV; listed as Homo sapiens) [compound 260] | “++++” (≥75% = ++++) | “+” (<20% = +)
261 (FLPETRIMTSV; listed as Homo sapiens) [compound 261] | “++++” (≥75% = ++++) | “+” (<20% = +)
262 (LMGPVVHEV; listed as Homo sapiens) [compound 262] | “++++” (≥75% = ++++) | “++” (20% - 49% = ++)
